The labels stand for the following.
T1: Rrp41 (archaeal exosome subunit);Rrp42 Y70A;Csl4 (exosome cap) (Archaeoglobus fulgidus (printed …, UniProt O29757;O29756;O30033 1-258;1-259;1-179, |Y70A|))
T1 sequence 1: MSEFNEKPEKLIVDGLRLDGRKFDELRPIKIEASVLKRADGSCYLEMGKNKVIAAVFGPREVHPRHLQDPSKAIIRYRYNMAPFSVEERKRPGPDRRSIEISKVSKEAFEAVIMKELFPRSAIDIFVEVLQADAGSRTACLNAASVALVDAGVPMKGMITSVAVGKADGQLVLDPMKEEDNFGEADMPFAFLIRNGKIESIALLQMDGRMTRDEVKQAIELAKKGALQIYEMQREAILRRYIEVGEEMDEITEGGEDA
T1 sequence 2: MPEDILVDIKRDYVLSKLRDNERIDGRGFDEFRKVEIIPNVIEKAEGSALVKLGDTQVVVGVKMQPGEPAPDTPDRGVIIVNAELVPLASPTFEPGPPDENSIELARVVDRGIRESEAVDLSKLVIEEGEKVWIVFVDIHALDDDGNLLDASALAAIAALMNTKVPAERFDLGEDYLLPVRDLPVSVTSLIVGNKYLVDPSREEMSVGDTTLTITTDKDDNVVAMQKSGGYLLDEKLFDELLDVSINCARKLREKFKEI
T1 sequence 3: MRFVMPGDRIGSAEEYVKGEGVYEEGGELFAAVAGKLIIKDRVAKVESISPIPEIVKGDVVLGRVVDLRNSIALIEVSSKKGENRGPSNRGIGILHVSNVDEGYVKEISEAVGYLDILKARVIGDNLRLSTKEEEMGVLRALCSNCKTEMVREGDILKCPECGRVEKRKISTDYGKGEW

T2: Rrp41 (archaeal exosome subunit);Rrp42 (archaeal exosome subunit);Csl4 (exosome cap) (Archaeoglobus fulgidus (printed …, UniProt O29757;O29756;O30033 1-258;1-259;1-179, ||))
T2 sequence 1: T1 sequence 1
T2 sequence 2: T1 sequence 2 with A70Y
T2 sequence 3: T1 sequence 3

T3: Archaeoglobus fulgidus exosome subunit Rrp42 (Archaeoglobus fulgidus, UniProt O29756 1-259)
T3 sequence: T1 sequence 2 with A70Y

T4: Archaeoglobus fulgidus exosome subunit Rrp42 Y70A (Archaeoglobus fulgidus, UniProt O29756 1-259, Y70A)
T4 sequence: T1 sequence 2

B1: Archaeoglobus fulgidus exosome cap subunit Rrp4 (natural protein, UniProt O29758 1-223, looked up)
chain: MRKIVLPGDLLSTNPRAAGYGTYVEGGKVYAKIIGLFDQTETHVRVIPLKGRYTPSVGDVVIGIIREVAANGWAVDIYSPYQAFLPVSENPEMKPNKKPNEVLDIGDAIIAKVLNIDPKMKVTLTMKDRICRPIRFGRIVAINPARVPRVIGKKGSMIKLLKSELDVQIVVGQNGLIWVNGDRRKVSIAEEAIYLIEQEAHTEGLTDRVAEFIKRRKADVGIQ
B2: Archaeoglobus fulgidus exosome subunit Rrp41 (natural protein)
chain: T1 sequence 1
B3: Archaeoglobus fulgidus exosome subunit Rrp41 D180A (natural protein)
chain: T1 sequence 1 with D180A
B4: Archaeoglobus fulgidus exosome cap subunit Csl4 (natural protein)
chain: T1 sequence 3

Data set [1] has as its target T1, Rrp41 (archaeal exosome subunit);Rrp42 …. Nature of the data set: X-ray crystallography.
In data set [2] the target is T2, Rrp41 (archaeal exosome subunit);Rrp42 …. Nature of the data set: X-ray crystallography.
Data set [3] concerns the target B3. Nature of the data set: SAXS.
Data set [4] concerns the target T3, Archaeoglobus fulgidus exosome subunit …. Nature of the data set: SAXS.
The target of data set [5] is T4, Archaeoglobus fulgidus exosome subunit …. The data set is described as follows: crystal structure.
In data set [6] the target is T3, Archaeoglobus fulgidus exosome subunit …. Nature of the data set: crystal structure.
For data set [7], the target named is B2. Nature of the data set: crystal structure.

Changes are numbered by the printed parent chain. Numbers in names are those of the source.

For the molecule CCCCUC (ssRNA) [6-mer RNA for crystallization], the binding result in data set [1] and in data set [2] was “binds” throughout.

Take B1: the binding result in data set [3] and in data set [4] was “binds” in each case.

Take B2: the binding result in data set [5] and in data set [6] was “binds” each time.

Consider B3, for which the binding result in data set [4] is “binds”.

In the case of B4, the binding result in data set [5], in data set [7] and in data set [6] was “binds” in each case.
